The supplement of paper PMC10724198
± gives the standard deviation of the averaged measurements.

System: Saccharomyces cerevisiae
Assay: protein stability index of tFT-peptide fusion (C-terminal peptide) (PSI (0-1 scale)); higher = more stable (slower turnover)
Details: temperature: 30 C
Procedure: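 MPS profiling in S. cerevisiae of the yeast C-terminome library: the last 12 aa of each annotated ORF are fused to the C-terminus of a sfGFP-mCherry timer, after a GGGS linker. Cells are FACS-sorted into 8 mCherry/sfGFP bins and deep-sequenced. PSI runs from 0 (unstable) to 1 (stable); wild type and das1Δ backgrounds, two technical replicates each.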

[1] = genetic background: das1 deletion

Sequence	protein stability index [1]	protein stability index (genetic background: wild type)
KKKAINEKAEQN [SEC62 C-terminal 12 aa]	0.679 ± 0.018	0.635 ± 0.02
LGQAVVKAINFA [YBR277C C-terminal 12 aa]	0.6797 ± 0.0059	0.702 ± 0.041
EEFSSGDYSMDY [RIE1 C-terminal 12 aa]	0.7024 ± 0.006	0.66 ± 0.025
PDDFEFGDDDFM [HCR1 C-terminal 12 aa]	0.712 ± 0.031	0.763 ± 0.041
VTGPHDRWYVVG [ATG14 C-terminal 12 aa]	0.76 ± 0.019	0.659 ± 0.024
TTVPIVSKKRQK [POP3 C-terminal 12 aa]	0.685 ± 0.033	0.699 ± 0.01
FRRRLGDRFKKD [MRX7 C-terminal 12 aa]	0.6895 ± 0.0044	0.695 ± 0.017
ARNIWRLFLQKI [YLR126C C-terminal 12 aa]	0.705 ± 0.058	0.168 ± 0.0098
RSHSRKNSLSLL [SPO24 C-terminal 12 aa]	0.72 ± 0.021	0.734 ± 0.028
LMILGNFMPILN [ERT1 C-terminal 12 aa]	0.6909 ± 0.0037	0.5655 ± 0.0049
DSTAPKPIPGKE [YKL030W C-terminal 12 aa]	0.68 ± 0.0037	0.663 ± 0.009
FTNALKNMYFSA [YJR037W C-terminal 12 aa]	0.709 ± 0.0094	0.585 ± 0.019
DYKLLKELASQV [GLT1 C-terminal 12 aa]	0.66531 ± 0.00065	0.635 ± 0.054
LKTPQEYESKAK [BOL1 C-terminal 12 aa]	0.702 ± 0.02	0.753 ± 0.069
TRSAWDRAQRRL [LCP5 C-terminal 12 aa]	0.697 ± 0.015	0.674 ± 0.013
HSNTLKRKIEQV [PUS4 C-terminal 12 aa]	0.7252 ± 0.0013	0.697 ± 0.012
DEGVSLVFEVPN [SQT1 C-terminal 12 aa]	0.683 ± 0.02	0.677 ± 0.012
HLGDPLWNFSVE [TMA20 C-terminal 12 aa]	0.7244 ± 0.0043	0.707 ± 0.01
NAKKGSKIEEIE [PTC3 C-terminal 12 aa]	0.6731 ± 0.0047	0.6656 ± 0.0058
CIGDTDYIERYD [CDA1 C-terminal 12 aa]	0.694 ± 0.015	0.685 ± 0.031
LEEVEVNDFIQE [SWM2 C-terminal 12 aa]	0.7099 ± 0.0036	0.682 ± 0.02

Sequence	protein stability index [1]	protein stability index (genetic background: wild type)
NDLITYMTKAAK [CYC7 C-terminal 12 aa]	0.722 ± 0.031	0.756 ± 0.14
DTSLYRYRSYGY [PUF2 C-terminal 12 aa]	0.7007 ± 0.0045	0.683 ± 0.033
AEIIDSLLEQIN [NSI1 C-terminal 12 aa]	0.744 ± 0.019	0.6797 ± 0.0017
LERIVGLLLMDM [MHF2 C-terminal 12 aa]	0.6675 ± 0.0051	0.651 ± 0.011
ITEVNVSLEEKL [FHL1 C-terminal 12 aa]	0.6842 ± 0.0013	0.7078 ± 0.0013
RPMQHMYINNFT [YAL026C-A C-terminal 12 aa]	0.71914 ± 0.00059	0.672 ± 0.011
KKKKSLFLFGKI [YOR019W C-terminal 12 aa]	0.702 ± 0.039	0.6688 ± 0.0015
RTDPDRYSRLSV [ILT1 C-terminal 12 aa]	0.703 ± 0.027	0.7277 ± 0.0055
KMQGKYIKKKAM [YNR001W-A C-terminal 12 aa]	0.7139 ± 0.0039	0.385 ± 0.024
FPWSHGTCIRGA [YOR376W C-terminal 12 aa]	0.696 ± 0.013	0.688 ± 0.01
HKTNLTRGSFYS [YIR020W-A C-terminal 12 aa]	0.70525 ± 6.6e-05	0.708 ± 0.041
DYLYAKDDLLKW [GPP1 C-terminal 12 aa]	0.7287 ± 0.0048	0.709 ± 0.011
GLRYDMVHKLIS [SLH1 C-terminal 12 aa]	0.688 ± 0.025	0.212 ± 0.028
NEDSMEIDDDLD [HSP104 C-terminal 12 aa]	0.6988 ± 0.0014	0.665 ± 0.021
YKKMKEMRKKRR [FCF2 C-terminal 12 aa]	0.703 ± 0.022	0.71 ± 0.05
REDDDEPASLDF [PRI1 C-terminal 12 aa]	0.697 ± 0.0043	0.6533 ± 0.0064
KNGYGNSNASWW [DBP1 C-terminal 12 aa]	0.717 ± 0.031	0.691 ± 0.027
KAQRSIWGKKSQ [ERV46 C-terminal 12 aa]	0.6703 ± 0.0035	0.682 ± 0.018
EVKVDKVVYEKE [VPS29 C-terminal 12 aa]	0.683 ± 0.067	0.725 ± 0.04
LIHNFNSRYCHE [LEE1 C-terminal 12 aa]	0.725 ± 0.0078	0.691 ± 0.0088
MELWYTCLSKNL [YCR050C C-terminal 12 aa]	0.694 ± 0.048	0.671 ± 0.034

Sequence	protein stability index [1]	protein stability index (genetic background: wild type)
ILISTIYAHCSS [HFD1 C-terminal 12 aa]	0.577 ± 0.0076	0.489 ± 0.015
GWDRLVEARSQI [EMW1 C-terminal 12 aa]	0.7268 ± 0.0039	0.708 ± 0.027
ELLYLIIAGLHI [FYV5 C-terminal 12 aa]	0.6959 ± 0.0029	0.7 ± 0.05
QTNSKPAAVSTN [PLN1 C-terminal 12 aa]	0.6745 ± 0.003	0.668 ± 0.02
MVNEWIHGGFSL [PRC1 C-terminal 12 aa]	0.73 ± 0.025	0.702 ± 0.019
CLRKSPPFVHNT [YMR084W C-terminal 12 aa]	0.6939 ± 0.0044	0.703 ± 0.022
NTEPPEAPAATN [AFG3 C-terminal 12 aa]	0.73 ± 0.032	0.668 ± 0.028
DENRHSIRIPFN [USB1 C-terminal 12 aa]	0.704 ± 0.015	0.688 ± 0.013
WVRLPTTSHGLD [SPO73 C-terminal 12 aa]	0.71917 ± 0.00042	0.733 ± 0.016
MGVFILFLDYVG [UFE1 C-terminal 12 aa]	0.277 ± 0.032	0.314 ± 0.013
SSANIDINSIAK [SPO22 C-terminal 12 aa]	0.7 ± 0.04	0.729 ± 0.11
LFFGGEKVHSLK [NGL3 C-terminal 12 aa]	0.7279 ± 0.0017	0.715 ± 0.026
TATSSSIILSDK [SSN2 C-terminal 12 aa]	0.713 ± 0.032	0.665 ± 0.045
QTSAKVSIRLLY [SER33 C-terminal 12 aa]	0.659 ± 0.034	0.595 ± 0.0064
TPKPVDTDDEED [NEW1 C-terminal 12 aa]	0.685 ± 0.023	0.707 ± 0.035
EEAFGKVQTKTF [SOL3 C-terminal 12 aa]	0.7098 ± 0.0052	0.7564 ± 0.0044
IGEFADNVMPLA [PRY2 C-terminal 12 aa]	0.709 ± 0.026	0.712 ± 0.0076
KWCASYSAGNRR [YLR280C C-terminal 12 aa]	0.709 ± 0.017	0.6752 ± 0.0061
LELQSRIESYLF [CNN1 C-terminal 12 aa]	0.703 ± 0.0072	0.715 ± 0.047
TAEEQEQSACQC [YPT6 C-terminal 12 aa]	0.6863 ± 0.0043	0.687 ± 0.021
MFKFNVHKKSKV [TAD2 C-terminal 12 aa]	0.72 ± 0.015	0.758 ± 0.048

Sequence	protein stability index [1]	protein stability index (genetic background: wild type)
RKFQPPPGFKRK [SMB1 C-terminal 12 aa]	0.724 ± 0.017	0.74 ± 0.047
ALLILVLGWFYR [SCS2 C-terminal 12 aa]	0.405 ± 0.027	0.4 ± 0.0047
DPFLYSCSRVAF [YDL196W C-terminal 12 aa]	0.729 ± 0.038	0.702 ± 0.012
GELSVDEKKKIY [ERV29 C-terminal 12 aa]	0.6932 ± 0.00077	0.657 ± 0.041
ELRERLLRPSKK [YPL245W C-terminal 12 aa]	0.7246 ± 0.0023	0.771 ± 0.032
KFFNYDGSEGVF [OSI1 C-terminal 12 aa]	0.7095 ± 0.0039	0.715 ± 0.022
VEDQSIEVKKEK [YPC1 C-terminal 12 aa]	0.684 ± 0.035	0.7136 ± 0.007
DDGTKNFIFKNK [ECM23 C-terminal 12 aa]	0.7072 ± 0.0034	0.706 ± 0.031
SLEKELISRGYR [CDC73 C-terminal 12 aa]	0.724 ± 0.0099	0.685 ± 0.02
LKQKALVAAKQS [YJR015W C-terminal 12 aa]	0.679 ± 0.024	0.319 ± 0.03
NQIIQARLKDLE [DNF3 C-terminal 12 aa]	0.686 ± 0.021	0.6964 ± 0.0035
SFPIASSTTQTS [NST1 C-terminal 12 aa]	0.696 ± 0.021	0.689 ± 0.0087
KLEKKQSERSTH [STE7 C-terminal 12 aa]	0.7002 ± 0.0013	0.769 ± 0.067
SNSSICFPLTIF [YKL136W C-terminal 12 aa]	0.6337 ± 0.0033	0.2798 ± 0.0007
KKIVIIYVVRFH [BSC4 C-terminal 12 aa]	0.304 ± 0.015	0.339 ± 0.01
MGISSNSFQGVN [KDX1 C-terminal 12 aa]	0.70379 ± 8.7e-05	0.6626 ± 0.0032
QRIKQNNFLSQL [MRPL37 C-terminal 12 aa]	0.7 ± 0.016	0.731 ± 0.05
AGADNTARLWTT [ERB1 C-terminal 12 aa]	0.722 ± 0.014	0.736 ± 0.056
QLKACQEAARQY [MIX17 C-terminal 12 aa]	0.675 ± 0.025	0.66 ± 0.031
